Consider 1 substance from patent US20250270325A1.

The target in the assay is target antigen. In words: antigen binding ELISA, antigen coated on plate. Background: ELISA stands for enzyme-linked immunosorbent assay.

isotype control (antibody) displayed a no binding up to (highest concentration tested) of more than 5 µM.
